# Laboratory results taken from IntAct's records for PubMed 22916205.
# B1: "Na(+)/H(+) exchange regulatory cofactor-like protein nrfl-1" (Caenorhabditis elegans), G5EDM4-1 (parent)
# chain: MVHIPSDVTPPRLCVVEKLNGENEYGYNLHAEKGRGQFVGTVDPDSPAERGGLITGDRIFAVNGHSIIGENHKKVVERIKANPNRCEMLVISEEGAKWYNENNVQITLDLPNIERVSPMSKETPVFVPPPPPPTDAMPYLPRLAELNKGTPDQEFGFNLHAERGRGHFIGTVDAGGIGEKAGLEAGQRIVGVNGQLIYPTTGHKEVVALIKKDTMKTTLLVASEDVDKYHKDHNIAYSWDNVERVDTRPVINVETHHHHEEVSVPKSNGYDVPPLNPHSIQVNEEREISKMTTTTRTETITNSNSAYQYKESSTAYDAYATPPVDSNDLMDEVFGRVNLPGVTMSSHTEVLPPTDDISSVSSLSSHRESAVDVPVSHQYVPSYATESHQKHEQHSQTHHHHHQHQQPSPLSNGSSHGYAASSTSGYDDDDIYHLSAREARERLRMKNRKHHLHEMSLNEKYQLVSNM
# partner: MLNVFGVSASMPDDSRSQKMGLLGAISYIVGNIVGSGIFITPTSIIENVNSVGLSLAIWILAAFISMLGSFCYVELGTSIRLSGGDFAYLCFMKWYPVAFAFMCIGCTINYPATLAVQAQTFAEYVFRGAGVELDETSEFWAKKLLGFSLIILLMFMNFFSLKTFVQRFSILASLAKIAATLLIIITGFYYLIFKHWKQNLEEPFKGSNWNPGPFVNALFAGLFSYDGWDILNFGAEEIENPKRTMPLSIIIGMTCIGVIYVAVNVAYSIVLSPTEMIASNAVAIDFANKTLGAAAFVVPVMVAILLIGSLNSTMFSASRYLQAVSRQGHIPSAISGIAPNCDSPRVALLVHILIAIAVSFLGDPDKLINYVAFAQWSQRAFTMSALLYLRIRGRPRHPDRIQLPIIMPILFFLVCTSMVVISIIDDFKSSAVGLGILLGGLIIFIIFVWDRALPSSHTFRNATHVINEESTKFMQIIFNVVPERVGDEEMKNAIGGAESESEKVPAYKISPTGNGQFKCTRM
# Variants of: B1
# Settings: with aat6_caeel aat-6, Q22397
row,Variant,effect of a mutation on the interaction
1,G26A;Y27A,with no effect
2,E154A;F155A,decreasing interaction strength
3,G26A;Y27A;E154A;F155A,disrupting interaction strength
